One assay has as its target T1, murine HER2-Fc (mouse; human, UniProt P70424 23-653).
T1 construct: extracellular domain; Bought from R&D Systems; also called murine ErbB2-Fc; not shown: Fc fragment of human IgG1
As to the kind of experiment: ELISA on coated muHER2-Fc, HRP anti-human kappa; the number is C of the printed 4-P fit (A -0.025, B 0.883, D 0.935, R^2 0.999); x axis: Fab equivalent concentration. Here is the method:
(§1) Wells of 96-well plates were coated by incubation overnight at 4-8° C. with goat antibodies against human kappa chain (80 ul/well of a 5 ug/ml solution in PBS). Wells were emptied, filled completely with a solution of PBS with 1% BSA (blocking buffer) and incubated at room temperature for 1 hour. Wells were emptied, washed twice PBS containing 0.05% Tween 20 (PBST) and filled with the samples (80 ul/well of 3× dilution series of the standard and supernatants in blocking buffer) prepared in another 96-well plate. After a 2-hour incubation at room temperature, the wells were emptied, washed three times with PBST and filled with a solution of HRP-conjugated goat pAbs anti-human kappa chain (80 ul/well of a 2000-fold dilution in blocking buffer). After 1-hour incubation, the wells were emptied and filled with a solution of HRP substrate prepared freshly. The color was left to develop for 3 minutes and was stopped by addition of an equal volume of 1N H₂SO₄. Absorbance was measured at 450 nm using a Plate Reader (SpectraMax, Molecular Devices). The data was processed and graphs were created using SoftMax Pro software.
(§2) Human and murine HER2-Fc (homodimeric fusion proteins consisting of the extracellular domain of HER2 and the Fc fragment of human IgG1) were obtained from R&D Systems. […]

Assay [1] concerns the target T2, human HVEM-Ig (human, UniProt Q92956 39-202).
T2 construct: Expressed and purified in house; also called HVEM-Fc; Herpes virus entry mediator-Ig
T2 sequence (looked up): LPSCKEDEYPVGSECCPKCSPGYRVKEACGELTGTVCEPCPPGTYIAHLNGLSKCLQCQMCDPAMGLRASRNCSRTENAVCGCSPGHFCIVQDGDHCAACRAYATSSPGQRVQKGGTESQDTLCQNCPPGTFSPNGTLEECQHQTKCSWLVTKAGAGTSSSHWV
The assay can be described thus: ELISA on coated HVEM-Ig. Here is the method:
as §1, with “Human and murine ErbB2-Fc were obtained from R&D Systems. Wells of” for “Wells of”, “were coated with 2 ug/ml or 0.2 ug/ml of human or murine HER2-Fc by incubation” for “were coated by incubation”, “C. with either of these six proteins (80 ul/well” for “C. with goat antibodies against human kappa chain (80 ul/well”, “of a 0.2 or 2 ug/ml solution” for “of a 5 ug/ml solution”
Human and murine HVEM-Ig were expressed and purified in house.

The target in assay [2] is T3, human HER2-Fc (human, UniProt P04626 23-652).
T3 construct: Bought from R&D Systems: homodimeric fusion of the HER2 extracellular domain and human IgG1 Fc; also called human ErbB2-Fc; rhErbB2-Fc; not shown: Fc fragment of human IgG1
As to the kind of experiment: ELISA on coated huHER2-Fc, HRP anti-human kappa; the number is C of the printed 4-P fit (A -0.074, B 0.86, D 1.013, R^2 0.999); x axis: Fab equivalent concentration. Here is the method: as §1, §2

The target in a further assay is T4, murine LTβR-Ig (mouse, UniProt P50284 31-223).
T4 construct: Expressed and purified in house; also called mLTbR; murine LTBR-Ig
T4 sequence (P50284 31-223): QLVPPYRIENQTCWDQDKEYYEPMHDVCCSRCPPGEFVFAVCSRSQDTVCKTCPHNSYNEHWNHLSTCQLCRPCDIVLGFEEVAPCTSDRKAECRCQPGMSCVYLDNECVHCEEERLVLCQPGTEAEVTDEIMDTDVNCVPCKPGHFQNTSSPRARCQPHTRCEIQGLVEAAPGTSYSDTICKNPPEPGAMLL
The assay can be described thus: ELISA, muLTBR-Ig coated at 2 ug/ml, HRP goat anti-human kappa; the number is C of the printed 4-P fit (A 0.093, B 0.898, D 1.613, R^2 0.995); Fab-Light is BIIB71F10-132 by paragraph 502. The method, then: as §1, with “Human and murine ErbB2-Fc were obtained from R&D Systems. Wells of” for “Wells of”, “were coated with 2 ug/ml or 0.2 ug/ml of human or murine HER2-Fc by incubation” for “were coated by incubation”, “C. with either of these six proteins (80 ul/well” for “C. with goat antibodies against human kappa chain (80 ul/well”, “of a 0.2 or 2 ug/ml solution” for “of a 5 ug/ml solution”
Human and murine LTBR-Ig were expressed and purified in house.

In assay [3] the target is T2, human HVEM-Ig. As to the kind of experiment: Octet biolayer interferometry, receptor-Fc on anti-human Fc biosensor, culture supernatant. Here is the method:
(§3) Anti-human Fc-specific biosensors (Fortebio SKU 18-0001) were hydrated in OB (1×PBS supplemented with 1 mg/ml BSA, 0.05% NaN₃, and 0.02% TWEEN 20) for at least five minutes prior to assays. For each assay, the respective receptor—Fc fusion was diluted to 10 μg/ml in OB and allowed to bind to the biosensors for five minutes. The sensors were then incubated in the indicated culture supernatant for an additional five minutes, and subsequently transferred to fresh wells […].

The next assay has as its target T5, human LTβR-Ig (human, UniProt P36941 31-227).
T5 construct: Expressed and purified in house; also called hLTbR-Ig; human LTBR-Ig
The assay is described as above. Here is the method: as §3

The target in assay [4] is T3, human HER2-Fc. The assay is described as above. Here is the method: as §3
Assay [5] has as its target T3, human HER2-Fc. As to the kind of experiment: ELISA on coated HER2-Fc. Here is the method: as §1, with “Human and murine ErbB2-Fc were obtained from R&D Systems. Wells of” for “Wells of”, “were coated with 2 ug/ml or 0.2 ug/ml of human or murine HER2-Fc by incubation” for “were coated by incubation”, “C. with either of these six proteins (80 ul/well” for “C. with goat antibodies against human kappa chain (80 ul/well”, “of a 0.2 or 2 ug/ml solution” for “of a 5 ug/ml solution”

A further assay addresses T6, IGFR-Ig (UniProt P08069 31-932).
T6 construct: not shown: Ig part not specified
The assay can be described thus: ELISA on IGFR-Ig, dilutions of medium of transfected CHO cells; the linker version of the control fusion is not named on the sheet.

1 molecule from patent publication US20130101549A1 (Biogen, published 2013) can be followed below.

T1 sequence (P70424 23-653): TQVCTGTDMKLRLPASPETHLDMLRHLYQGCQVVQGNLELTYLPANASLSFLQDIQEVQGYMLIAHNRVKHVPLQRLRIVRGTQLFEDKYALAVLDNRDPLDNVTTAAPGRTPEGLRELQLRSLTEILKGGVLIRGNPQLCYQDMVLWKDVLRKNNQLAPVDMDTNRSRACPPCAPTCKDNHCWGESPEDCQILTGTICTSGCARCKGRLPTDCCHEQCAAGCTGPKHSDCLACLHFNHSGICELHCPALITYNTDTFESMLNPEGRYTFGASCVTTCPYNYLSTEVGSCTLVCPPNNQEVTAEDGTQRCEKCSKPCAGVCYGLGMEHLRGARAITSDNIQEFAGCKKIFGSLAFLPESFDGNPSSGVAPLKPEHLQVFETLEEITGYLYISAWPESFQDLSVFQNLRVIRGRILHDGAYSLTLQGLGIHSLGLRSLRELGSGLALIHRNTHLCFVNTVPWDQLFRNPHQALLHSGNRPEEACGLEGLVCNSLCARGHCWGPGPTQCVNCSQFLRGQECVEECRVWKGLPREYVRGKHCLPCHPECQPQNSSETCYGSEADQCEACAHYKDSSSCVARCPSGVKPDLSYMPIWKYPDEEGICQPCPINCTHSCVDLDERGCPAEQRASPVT
T5 sequence (P36941 31-227): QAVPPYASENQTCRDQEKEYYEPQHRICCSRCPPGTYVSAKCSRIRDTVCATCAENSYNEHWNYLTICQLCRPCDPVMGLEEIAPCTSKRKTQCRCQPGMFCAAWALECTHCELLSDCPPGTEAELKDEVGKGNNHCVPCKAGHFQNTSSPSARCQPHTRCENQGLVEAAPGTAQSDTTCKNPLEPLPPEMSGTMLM

B1: 71F10 Fab-hLIGHT fusion with the (G4S)4 linker (BIIB71F10-132) (other)
heavy: EVQLLESGGGLVQPGGSLRLSCAASGFTFSSYGMVWVRQAPGKGLEWVSSISSSGGLTWYADSVKGRFTISRDNSKNTLYLQMNSLRAEDTAVYYCASPPGIAVARDYWGQGTLVTVSSASTKGPSVFPLAPSSKSTSGGTAALGCLVKDYFPEPVTVSWNSGALTSGVHTFPAVLQSSGLYSLSSVVTVPSSSLGTQTYICNVNHKPSNTKVDKKVEPKSCDKGGGGSGGGGSGGGGSGGGGSNPAAHLTGANSSLTGSGGPLLWETQLGLAFLRGLSYHDGALVVTKAGYYYIYSKVQLGGVGCPLGLASTITHGLYKRTPRYPEELELLVSQQSPCGRATSSSRVWWDSSFLGGVVHLEAGEEVVVRVLDERLVRLRDGTRSYFGAFMV
light: DIQMTQSPSSLSASVGDRVTITCRASQGISNYLAWYQQKPGKVPKLLIYAASTLQSGVPSRFSGSGSGTDFTLTISSLQPEDVATYYCQKYNSALLTFGGGTKVEIKRTVAAPSVFIFPPSDEQLKSGTASVVCLLNNFYPREAKVQWKVDNALQSGNSQESVTEQDSKDSTYSLSSTLTLSKADYEKHKVYACEVTHQGLSSPVTKSFNRGEC
notes: Trimer of Fab-LIGHT units; also called 71F10 Fab-(G4S)4-LIGHT
On to B1, for which the EC50 amounted to 12.2 ng/mL in the assay with murine HER2-Fc; 0.01 nM with human HVEM-Ig [1]; 7 ng/mL with human HER2-Fc [2]; 3.57 ng/mL with murine LTβR-Ig; 0.05 nM with human HER2-Fc [5]. In addition, the koff in the assay with human HVEM-Ig [3] was determined as 0.00016 s⁻¹; with human LTβR-Ig, 0.000197 s⁻¹; with human HER2-Fc [4], 0.000117 s⁻¹. In the assay with IGFR-Ig, the binding result was “no binding (tested: dilution 1.00 (undiluted medium))”.
